Results: patent EP4814000A1
Like-named read-outs stand apart in the source and are kept apart here.

Tests used:
[1] = molecular target: 003m-P215S (RSV); assay: flow cytometry, Expi293F cells, mRNA-LNP (RL151)
[2] = molecular target: 003m-P215S-1×GCN4t (RSV); assay: flow cytometry, Expi293F cells, mRNA-LNP (RL151)
[3] = molecular target: 003m-P215S-S-3N; assay: flow cytometry, Expi293F cells, mRNA-LNP (RL151)
[4] = molecular target: 003m-P215S-ΔF111 (RSV); assay: flow cytometry, Expi293F cells, mRNA-LNP (RL151)
[5] = molecular target: 003m-P215S-ΔF111-1×GCN4t (RSV); assay: flow cytometry, Expi293F cells, mRNA-LNP (RL151)
[6] = molecular target: 003m-P215S-ΔF111-S-3N; assay: flow cytometry, Expi293F cells, mRNA-LNP (RL151)
[7] = molecular target: 003m-P215S (RSV); assay: flow cytometry, Expi293F cells, Lipofectamine 2000-mRNA
[8] = molecular target: 003m-P215S-2×GCN4t (RSV); assay: as above
[9] = molecular target: 003M-P215S-L (RSV); assay: as above
[10] = molecular target: 003M-P215S-L-3N (RSV); assay: as above
[11] = molecular target: 003M-P215S-S (RSV); assay: as above
[12] = molecular target: 003m-P215S (RSV); assay: as above; remark: listed apart in the source
[13] = molecular target: 003m-P215S-2×GCN4t (RSV); assay: as above; remark: listed apart in the source
[14] = molecular target: 003m-P215S-S-3N; assay: as above
[15] = molecular target: RSV B-003m-P215S (RSV B); assay: flow cytometry, Expi293F cells, Lipofectamine 2000-mRNA; mRNA RQ1
[16] = molecular target: RSV B-003m-P215S-1×GCN4t (RSV B); assay: as above
[17] = molecular target: RSV B-003m-P215S-1×GCN4t-C102A-C362S (RSV B); assay: as above
[18] = molecular target: RSV B-003m-P215S-1×GCN4t-C155S-C290S (RSV B); assay: as above
[19] = molecular target: RSV B-003m-P215S-1×GCN4t-C486D-C489D (RSV B); assay: as above
[20] = molecular target: RSV B-003m-P215S-1×GCN4t-D92E (RSV B); assay: as above
[21] = molecular target: RSV B-003m-P215S-1×GCN4t-F190S (RSV B); assay: as above
[22] = molecular target: RSV B-003m-P215S-1×GCN4t-G46S (RSV B); assay: as above
[23] = molecular target: RSV B-003m-P215S-1×GCN4t-ori_linker (RSV B); assay: as above
[24] = molecular target: RSV B-003m-P215S (RSV B); assay: flow cytometry, Expi293F cells, Lipofectamine 2000-mRNA; mRNA RQ2
[25] = molecular target: RSV B-003m-P215S-1×GCN4t (RSV B); assay: as above
[26] = molecular target: RSV B-003m-P215S-1×GCN4t-C102A-C362S (RSV B); assay: as above
[27] = molecular target: RSV B-003m-P215S-1×GCN4t-C155S-C290S (RSV B); assay: as above
[28] = molecular target: RSV B-003m-P215S-1×GCN4t-C486D-C489D (RSV B); assay: as above
[29] = molecular target: RSV B-003m-P215S-1×GCN4t-D92E (RSV B); assay: as above
[30] = molecular target: RSV B-003m-P215S-1×GCN4t-F190S (RSV B); assay: as above
[31] = molecular target: RSV B-003m-P215S-1×GCN4t-G46S (RSV B); assay: as above
[32] = molecular target: RSV B-003m-P215S-1×GCN4t-ori_linker (RSV B); assay: as above
[33] = molecular target: 003m-P215S-1×GCN4t (RSV); assay: flow cytometry, Expi293F cells, Lipofectamine 2000-mRNA; row 003M-P215S-1×GCNt (ORIG)
[34] = molecular target: 003m-P215S-1×GCN4t (RSV); assay: flow cytometry, Expi293F cells, Lipofectamine 2000-mRNA; row 003m-P215S-1×GCN4t-opti3
[35] = molecular target: 003m-P215S-1×GCN4t (RSV); assay: flow cytometry, Expi293F cells, Lipofectamine 2000-mRNA; row 003m-P215S-1×GCN4t (ORIG)
[36] = molecular target: 003m-P215S-1×GCN4t (RSV); assay: flow cytometry, Expi293F cells, Lipofectamine 2000-mRNA; row 003M-P215S-1×GCN4t (ORIG)

Row | Substance | MFI [1] | MFI [2] | MFI [3] | MFI [4] | MFI [5] | MFI [6] | MFI [7] | MFI [8] | MFI [9] | MFI [10] | MFI [11] | MFI [12] | MFI [13] | MFI [14] | MFI [15] | MFI [16] | MFI [17] | MFI [18] | MFI [19] | MFI [20] | further results
1 | AM14-AF488 (antibody) | 20000 | 4180 | 5920 | 45200 | 821 | 49100 | 338000 | 2680 | 4540 | 17500 | 5620 | 90100 | 1890 | 42400 | 496000 | 7340 | 3640 | 48400 | 8130 | 763 | MFI [21]: 11100; MFI [22]: 4140; MFI [23]: 175; MFI [24]: 521000; MFI [25]: 5300; MFI [26]: 3940; MFI [27]: 36300; MFI [28]: 8080; MFI [29]: 792; MFI [30]: 11300; MFI [31]: 3670; MFI [32]: 286; MFI [33]: 2560; MFI [34]: 3430; MFI [35]: 4150; MFI [36]: 2560
2 | D25-AF488 (antibody) | 16400 | 3880 | 6730 | 37300 | 682 | 44800 | 270000 | 5120 | 5820 | 23400 | 8920 | 77200 | 2150 | 48800 | 364000 | 8770 | 13900 | 94600 | 8170 | 2250 | MFI [21]: 13500; MFI [22]: 4570; MFI [23]: 480; MFI [24]: 379000; MFI [25]: 7110; MFI [26]: 15700; MFI [27]: 67300; MFI [28]: 8130; MFI [29]: 2480; MFI [30]: 13100; MFI [31]: 4110; MFI [32]: 556; MFI [33]: 3840; MFI [34]: 4990; MFI [35]: 8390; MFI [36]: 3840
